Assay [1] deals with T1, hGPVI-hFc fusion protein (human).
T1 construct: also called GPVI-Fc; human GPVI-Fc fusion protein
The experiment in a line: DELFIA competition assay: IgG preincubated with GPVI-Fc (3 µg/ml), binding to collagen-coated plate, Test 1. The procedure:
(§1) Collagen coated 384 well plates (Pierce) were blocked with 3% BSA for 2 h. Increasing concentrations of IgG or its corresponding Fab fragment produced by Ficin cleavage (0.3-20 μg/ml) were incubated with recombinant GPVI (Fc-fusion protein of the extracellular GPVI domain; 3 μg/ml) for 30 min. The GPVI-IgG mixture was added to collagen coated plates and incubated for 1 h at RT. Next, 384 well plates were washed (DELFIA wash buffer, Perkin Elmer) five times and Eu-labelled anti-human IgG (100 ng/ml Perkin Elmer) was added. Following 1 h incubation at room temperature plates were washed again five times, enhancement solution (Perkin Elmer) was added and incubated for 10 min. Fluorescence was detected at 360/612 nm using a Tecan Ultra reader.

Assay [2] deals with T1, hGPVI-hFc fusion protein. The experiment in a line: competition ELISA: purified IgG pre-incubated with hGPVI-Fc, mixture added to collagen-coated plate, bound GPVI-Fc detected with anti-human IgG-Fc-HRP (OD 450 nm); blocked ligand: collagen. On the procedure:
(§2) A secondary screening was performed to characterize functional properties of all human GPVI-specific mAbs for their ability to block the binding of collagen to human GPVI-Fc fusion protein in a competition ELISA binding assay. Custom-made collagen coated 96-well plates (Pierce) were used. Pre-incubated mixture of human GPVI-Fc fusion protein and hybridoma supernatants were added to the plate and collagen-human GPVI-Fc complex was detected by using goat anti-human IgG-Fc conjugated with horseradish peroxidase (Sigma; #A0170). The antibody binding was visualized by adding TMB-H2O2 buffer and read at a wavelength of 450 nm. […] The blocking properties of pre-selected mAbs to human GPVI were confirmed to be dose-dependent using a competition ELISA assay as shown in FIG. 1A.
(In general: ELISA stands for enzyme-linked immunosorbent assay.)

The target in assay [3] is T2, primate GPVI-Fc fusion protein (Macaca fascicularis) (Macaca fascicularis (cynomolgus), UniProt Q9HCN6 21-205 (human entry)).
T2 construct: also called Maccaca GPVI-Fc; primate GPVI-Fc protein; not shown: Fc part of the primate GPVI-Fc fusion is not described
T2 chain: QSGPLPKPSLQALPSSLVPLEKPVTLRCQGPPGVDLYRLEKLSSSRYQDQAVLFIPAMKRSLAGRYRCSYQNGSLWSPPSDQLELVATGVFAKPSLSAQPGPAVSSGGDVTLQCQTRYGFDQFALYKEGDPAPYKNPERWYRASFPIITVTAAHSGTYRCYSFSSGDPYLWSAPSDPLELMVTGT
As to the kind of experiment: competition ELISA against Maccaca GPVI-Fc: inhibition by purified IgG of the binding of GPVI-Fc to collagen; blocked ligand: collagen.

For assay [4], the target named is T1, hGPVI-hFc fusion protein. The experiment in a line: competition ELISA, hGPVI-Fc on collagen-coated plates (FIG. 1A). On the procedure: as §2
For assay [5], the target named is T1, hGPVI-hFc fusion protein. The experiment in a line: DELFIA competition assay: IgG preincubated with GPVI-Fc (3 µg/ml), binding to collagen-coated plate, Test 2. The procedure:
as §1

The target of assay [6] is T3, human GPVI protein, soluble extracellular domain (D1 and D2) (human, UniProt Q9HCN6 21-267).
T3 construct: extracellular domain; also called hGPVI; human glycoprotein VI
T3 sequence (looked up): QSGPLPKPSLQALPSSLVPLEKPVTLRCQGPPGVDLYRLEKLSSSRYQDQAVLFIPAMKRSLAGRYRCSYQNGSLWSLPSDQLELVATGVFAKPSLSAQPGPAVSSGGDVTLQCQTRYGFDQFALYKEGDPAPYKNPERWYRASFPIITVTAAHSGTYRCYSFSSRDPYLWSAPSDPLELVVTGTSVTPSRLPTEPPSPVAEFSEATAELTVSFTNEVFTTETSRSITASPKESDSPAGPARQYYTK
As to the kind of experiment: SPR (BIAcore 2000), mAb captured by anti-Fc, human GPVI in solution. On the procedure: A last screening was performed by Surface Plasmon Resonance (BIAcore 2000) to evaluate binding properties of GPVI blocking antibodies. In this analysis, we evaluated the interaction of the human GPVI protein with the anti-human GPVI mAbs fixed to anti-Fc antibody covalently linked to CM chips. Binding kinetics of the individual mAbs were performed using the protocol described by Canziani et al 2004. Anal. Biochem. 325: 301-307.

Assay [7] concerns the target T1, hGPVI-hFc fusion protein. As to the kind of experiment: DELFIA competition assay: Fab preincubated with GPVI-Fc (3 µg/ml), binding to collagen-coated plate, Test 2. The procedure:
as §1

In assay [8] the target is T1, hGPVI-hFc fusion protein. As to the kind of experiment: DELFIA competition assay: Fab preincubated with GPVI-Fc (3 µg/ml), binding to collagen-coated plate, Test 1. The procedure:
as §1

The values below come from patent US20150098939A1 (Sanofi, published 2015).

B1: anti-GPVI mAb from hybridoma clone 390 (antibody, mouse IgG1, kappa, V domains shown)
VH: QVQLKESGPGLVAPSQSLSITCTVSGFSLTGYGVNWVRQPPGKGLEWLGMIWGDGSTDYNSTLKSRLSISKDNSKSQVFLKMNSLQTDDTARYYCARDLPMDYWGQGTSVTVSS
VL: DIQMTQSPSSLSASLGGKVTITCKASQDINKYIAWYQHKPGKGPSLLIHYTSTLQPGIPSRFSGSGSGRDYSFSISNLEPEDIATYYCLQYANLLTFGGGTKLEIKR
modifications: N-glycosylation site (NST) in the heavy chain variable region is occupied
notes: Mouse IgG1, kappa, purified from hybridoma; also called monoclonal antibody from clone 390; IgG from hybridoma clone 390
B1: the figures for the IC50 with hGPVI-hFc fusion protein [1], with hGPVI-hFc fusion protein [4] and with hGPVI-hFc fusion protein [5] were 5.6 µg/mL, < 10 µg/mL and 5 µg/mL, respectively. Also, the “IC50 (read off the curve)” value in the assay with hGPVI-hFc fusion protein [2] is ~3 µg/mL; in assay [3], ~5 µg/mL. Besides, in assay [6], binding was characterised by a dissociation constant (Kd) of 0.04 nM. In assay [6], this molecule showed a koff of 4e-06 s⁻¹. In assay [6], this molecule gave a kon of 108000 M⁻¹ s⁻¹.

B2: Fab produced by Ficin cleavage of IgG from hybridoma clone 390 (Fab, V domains shown)
VH: QVQLKESGPGLVAPSQSLSITCTVSGFSLTGYGVNWVRQPPGKGLEWLGMIWGDGSTDYNSTLKSRLSISKDNSKSQVFLKMNSLQTDDTARYYCARDLPMDYWGQGTSVTVSS
VL: DIQMTQSPSSLSASLGGKVTITCKASQDINKYIAWYQHKPGKGPSLLIHYTSTLQPGIPSRFSGSGSGRDYSFSISNLEPEDIATYYCLQYANLLTFGGGTKLEIKR
notes: Proteolytic Fab; also called Fab (Ficin cleavage); proteolytic Fab fragment
On to B2, for which the IC50 with hGPVI-hFc fusion protein [7] was 1.1 µg/mL; in the assay with hGPVI-hFc fusion protein [8] it was 1.3 µg/mL.

By IC50 is commonly meant the midpoint of a concentration-inhibition curve. A word on the Kd: it is the free concentration of one partner at which half of the binding sites on the other are occupied at equilibrium, for simple one-to-one binding. Read a low Kd as higher affinity. In general, koff refers to a measure of how fast the partners let go of each other. Lower therefore signals a long-lived complex. As a reminder, the kon is a measure of how fast the partners come together. Higher therefore signals faster complex formation.
